In patent publication US20180237497A1 (CANCER RESEARCH TECHNOLOGY, published 2018):
Read-outs that look alike come from different tables or passages of the source.

Key:
[1] = biological target: T1, human IGF2^1-67 (mature insulin-like growth factor 2) (human, UniProt P01344 25-91, biotinylated (site not stated) where immobilised on the chip (Tables 1-4)); assay: SPR steady state, biotin-IGF2 on chip, pH 7.4
T1 construct: mature; also called mature IGF2; biotinylated IGF2
Protocol: (§1) Final kinetic analysis of mutants by SPR was conducted using a Biacore T200 biosensor at 25° C. in either HBS-EP (10 mM HEPES pH 7.4, 150 mM NaCl, 3 mM EDTA, and 0.005% (v/v) surfactant P20) or MES-EP (20 mM MES pH 6.5, 150 mM NaCl, 3 mM EDTA, and 0.005% (v/v) surfactant P20) at a flow-rate of 40 μL min⁻¹. […] For the analysis of the Fc-domain 11^AB5 interaction, approximately 50 RU of a biotinylated IGF2:biotinylated ubiquitin mixture (1:8 proportion) was immobilized on the CM5-streptavidin chip. This interaction was also analysed by immobilizing the Fc-domain 11^AB5 and Fc-domain 11^AB5-RHH (or Fc-domain 11^I1572A as control) by Human Antibody Capture (monoclonal mouse anti-human IgG antibody immobilised on a CM5 chip by amine coupling, GE Healthcare) with and without human IgG1 Fc fragment (Bethyl Laboratories, UK) in the control flow cell. […] T200 BiaEvaluation software (GE Healthcare) was used to fit the resulting curves according to a 1:1 binding model. Steady state affinities were determined using the kinetic data, taking the response average at 5 seconds before injection end and for 5 seconds average. Thermodynamic data was performed across the temperature range of 10° C. to 30° C., van't Hoff and Erying plots generated and ΔH, −TΔS and ΔG values determined as previously described.

[2] = biological target: T1, human IGF2^1-67 (mature insulin-like …); assay: SPR kinetic, biotin-IGF2 on chip, pH 7.4
Protocol: as §1

[3] = biological target: T1, human IGF2^1-67 (mature insulin-like …); assay: SPR steady state, biotin-IGF2 on chip, pH 7.4; remark: listed apart in the source
Source text: (§2) Surface plasmon resonance (SPR) binding analysis of recombinant M6P/IGF2R domain 11 mutants interaction with IGF2. Kon indicates association (on) rate; koff, dissociation (off) rate; RU, response units. Binding to IGF2 assessed with BIAcore T200 using purified biotinylated IGF2 and IGF1 on a streptavidin biosensor chip. Recombinant proteins were expressed either in E. coli and/or P. pastoris. All the mutants in the FG and CD loops are on the domain 11^AB5 background for the AB loop unless otherwise stated. All experiments were carried out at 25° C. in HBS-EP buffer (pH 7.4), were repeated 2-5 times on two independent BIAcore chips. nd=not determined. Data for KD expressed as mean of each experiment, and means of kon and koff are shown.
as §1, with “average.” for “average. Thermodynamic data was performed across the temperature range of 10° C. to 30° C., van't Hoff and Erying plots generated and ΔH, −TΔS and ΔG values determined as previously described.”

[4] = biological target: T1, human IGF2^1-67 (mature insulin-like …); assay: SPR kinetic, biotin-IGF2 on chip, pH 7.4; remark: listed apart in the source
Source text: as §2
as §1, with “average.” for “average. Thermodynamic data was performed across the temperature range of 10° C. to 30° C., van't Hoff and Erying plots generated and ΔH, −TΔS and ΔG values determined as previously described.”

T1 sequence (P01344 25-91): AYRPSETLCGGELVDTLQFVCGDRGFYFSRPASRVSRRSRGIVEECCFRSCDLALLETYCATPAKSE

Binder | Kd [1] [nM] | Kd [2] [nM] | koff [2] [s⁻¹] | kon [2] [M⁻¹ s⁻¹] | Kd [3] [nM] | Kd [4] [nM] | koff [4] [s⁻¹] | kon [4] [M⁻¹ s⁻¹]
domain 11^AB5 T1633A (receptor, See m5; HI loop mutant) MKSNEHDDCQVTNPSTGHLFDLSSLSGRAGFTAAYAKGWGVYMSICGENENCPPGVGACFGQTRISVGKANKRLRYVDQVLQLVYKDGSPCPSKSGLSYKSVISFVCRPEAGPTNRPMLISLDKQACTLFFSWHTPLACEQATECSV |  |  |  |  | 53.5 | 26.4 | 0.0196 | 800000
domain 11^AB5 P1597N (receptor, See m5) MKSNEHDDCQVTNPSTGHLFDLSSLSGRAGFTAAYAKGWGVYMSICGENENCPPGVGACFGQTRISVGKANKRLRYVDQVLQLVYKDGSNCPSKSGLSYKSVISFVCRPEAGPTNRPMLISLDKQTCTLFFSWHTPLACEQATECSV | 5.36 | 4.13 | 0.018 | 4.72e+06 |  |  |  | 
domain 11^AB5 Q1569R P1597K S1602H (receptor, See m5) MKSNEHDDCQVTNPSTGHLFDLSSLSGRAGFTAAYAKGWGVYMSICGENENCPPGVGACFGRTRISVGKANKRLRYVDQVLQLVYKDGSKCPSKHGLSYKSVISFVCRPEAGPTNRPMLISLDKQTCTLFFSWHTPLACEQATECSV | 2.11 | 0.92 | 0.0073 | 7.87e+06 |  |  |  | 
domain 11^AB3 Q1569R P1597K S1602H (receptor, See m5) MKSNEHDDCQVTNPSTGHLFDLSSLSGRAGFTAAYSKSGVVYMSICGENENCPPGVGACFGRTRISVGKANKRLRYVDQVLQLVYKDGSKCPSKHGLSYKSVISFVCRPEAGPTNRPMLISLDKQTCTLFFSWHTPLACEQATECSV | 1.39 | 0.79 | 0.016 | 2.01e+07 |  |  |  | 
domain 11^AB5 P1597K S1602H (receptor, See m5) MKSNEHDDCQVTNPSTGHLFDLSSLSGRAGFTAAYAKGWGVYMSICGENENCPPGVGACFGQTRISVGKANKRLRYVDQVLQLVYKDGSKCPSKHGLSYKSVISFVCRPEAGPTNRPMLISLDKQTCTLFFSWHTPLACEQATECSV | 7.85 | 4.62 | 0.0096 | 2.09e+06 |  |  |  | 
domain 11^AB5 P1597K (receptor, See m5) MKSNEHDDCQVTNPSTGHLFDLSSLSGRAGFTAAYAKGWGVYMSICGENENCPPGVGACFGQTRISVGKANKRLRYVDQVLQLVYKDGSKCPSKSGLSYKSVISFVCRPEAGPTNRPMLISLDKQTCTLFFSWHTPLACEQATECSV | 2.21 | 1.94 | 0.012 | 9.54e+06 |  |  |  | 
domain 11^AB3 Q1569R P1597K S1602H G1603K (receptor, See m5) MKSNEHDDCQVTNPSTGHLFDLSSLSGRAGFTAAYSKSGVVYMSICGENENCPPGVGACFGRTRISVGKANKRLRYVDQVLQLVYKDGSKCPSKHKLSYKSVISFVCRPEAGPTNRPMLISLDKQTCTLFFSWHTPLACEQATECSV | 1.62 | 0.78 | 0.0171 | 2.08e+07 |  |  |  | 
domain 11^AB5 P1597L (receptor, See m5) MKSNEHDDCQVTNPSTGHLFDLSSLSGRAGFTAAYAKGWGVYMSICGENENCPPGVGACFGQTRISVGKANKRLRYVDQVLQLVYKDGSLCPSKSGLSYKSVISFVCRPEAGPTNRPMLISLDKQTCTLFFSWHTPLACEQATECSV | 4.85 | 3.86 | 0.015 | 4.18e+06 |  |  |  | 
domain 11^AB5 P1597A (receptor, See m5) MKSNEHDDCQVTNPSTGHLFDLSSLSGRAGFTAAYAKGWGVYMSICGENENCPPGVGACFGQTRISVGKANKRLRYVDQVLQLVYKDGSACPSKSGLSYKSVISFVCRPEAGPTNRPMLISLDKQTCTLFFSWHTPLACEQATECSV | 12.4 | 9.07 | 0.0174 | 1.9e+06 |  |  |  | 

The remaining binders from weak to strong by Kd [1], led by results:

Kd [1] [nM] | Kd [2] [nM] | koff [2] [s⁻¹] | kon [2] [M⁻¹ s⁻¹] | Kd [3] [nM] | Kd [4] [nM] | koff [4] [s⁻¹] | kon [4] [M⁻¹ s⁻¹] | Binder
18.7 | 17.6 | 0.348 | 1.97e+07 |  |  |  |  | domain 11^AB3 P1597H K1631W (receptor, See m5) MKSNEHDDCQVTNPSTGHLFDLSSLSGRAGFTAAYSKSGVVYMSICGENENCPPGVGACFGQTRISVGKANKRLRYVDQVLQLVYKDGSHCPSKSGLSYKSVISFVCRPEAGPTNRPMLISLDWQTCTLFFSWHTPLACEQATECSV
5.33 | 3.73 | 0.0102 | 2.74e+06 |  |  |  |  | domain 11^AB3 P1597K S1602H (receptor, See m5) MKSNEHDDCQVTNPSTGHLFDLSSLSGRAGFTAAYSKSGVVYMSICGENENCPPGVGACFGQTRISVGKANKRLRYVDQVLQLVYKDGSKCPSKHGLSYKSVISFVCRPEAGPTNRPMLISLDKQTCTLFFSWHTPLACEQATECSV
4.9 | 4.19 | 0.0193 | 5e+06 |  |  |  |  | domain 11^AB5 P1597S (receptor, See m5) MKSNEHDDCQVTNPSTGHLFDLSSLSGRAGFTAAYAKGWGVYMSICGENENCPPGVGACFGQTRISVGKANKRLRYVDQVLQLVYKDGSSCPSKSGLSYKSVISFVCRPEAGPTNRPMLISLDKQTCTLFFSWHTPLACEQATECSV
4.51 | 3.83 | 0.0203 | 6.53e+06 |  |  |  |  | domain 11^AB5 P1597Q (receptor, See m5) MKSNEHDDCQVTNPSTGHLFDLSSLSGRAGFTAAYAKGWGVYMSICGENENCPPGVGACFGQTRISVGKANKRLRYVDQVLQLVYKDGSQCPSKSGLSYKSVISFVCRPEAGPTNRPMLISLDKQTCTLFFSWHTPLACEQATECSV
2.27 | 1.34 | 0.0241 | 2e+07 |  |  |  |  | domain 11^AB3 Q1569R P1597K (receptor, See m5) MKSNEHDDCQVTNPSTGHLFDLSSLSGRAGFTAAYSKSGVVYMSICGENENCPPGVGACFGRTRISVGKANKRLRYVDQVLQLVYKDGSKCPSKSGLSYKSVISFVCRPEAGPTNRPMLISLDKQTCTLFFSWHTPLACEQATECSV
1.95 | 1.02 | 0.0115 | 1.12e+07 |  |  |  |  | domain 11^AB5 Q1569R P1597H K1631W (receptor, See m5) MKSNEHDDCQVTNPSTGHLFDLSSLSGRAGFTAAYAKGWGVYMSICGENENCPPGVGACFGRTRISVGKANKRLRYVDQVLQLVYKDGSHCPSKSGLSYKSVISFVCRPEAGPTNRPMLISLDWQTCTLFFSWHTPLACEQATECSV
1.69 | 0.95 | 0.0091 | 9.59e+06 |  |  |  |  | domain 11^AB5 Q1569R P1597K (receptor, See m5) MKSNEHDDCQVTNPSTGHLFDLSSLSGRAGFTAAYAKGWGVYMSICGENENCPPGVGACFGRTRISVGKANKRLRYVDQVLQLVYKDGSKCPSKSGLSYKSVISFVCRPEAGPTNRPMLISLDKQTCTLFFSWHTPLACEQATECSV
